Data published in patent US20190367961A1, “MOGROL GLYCOSYLTRANSFERASE AND GENE ENCODING SAME” (SUNTORY HOLDINGS LIMITED, priority 2014, published 2019).

Experiment: glucose transfer (glycosylation) activity for mogrol, product analysed by LC-IT-TOF-MS
Type: biochemical
Settings: same enzyme conditions (0.2 mM mogrol, 2 mM UDP-glucose, 30° C., 3 hours)
Experimental: Purification was carried out using the HisTag of the recombinant protein according to an ordinary method, and glucose transfer activity for mogrol prepared by hydrolyzing a Siraitia grosvenorii extract (Takemoto, T. et al. (1983) YAKUGAKU ZASSHI 103(11), 1167-1173) was evaluated. The enzyme reaction composition was 0.2 mM mogrol as a glucose acceptor, 2 mM UDP-glucose as a glucose donor, and 50 mM calcium phosphate buffer (pH 7.5); an enzyme solution was added thereto, which was then reacted at 30° C. for 3 hours; and the product was analyzed using LC-IT-TOF-MS (Shimadzu Corporation).
Stevia-derived UGT85C2 and UGT73E1 were expressed in the same manner as in the above method. The product amount was measured under the above enzyme conditions to determine relative activity by dividing it by the expressed protein amount. As a result, the relative activities of stevia-derived UGT85C2 and UGT73E1 when the activity of SgUGT74-943 was set to 1 were 0.35 and 0.22, respectively. The glycosylation activity of Siraitia grosvenorii-derived SgUGT74-943 was confirmed to be nearly 3 times higher than those of stevia-derived UGT85C2 and UGT73E1 (FIG. 4).

B1: UGT85C2: steviol glycosyltransferase derived from stevia, known to glycosylate mogrol (protein, UniProt Q6VAB0 1-481, looked up)
UDP-glycosyltransferase 85C2: MDAMATTEKKPHVIFIPFPAQSHIKAMLKLAQLLHHKGLQITFVNTDFIHNQFLESSGPHCLDGAPGFRFETIPDGVSHSPEASIPIRESLLRSIETNFLDRFIDLVTKLPDPPTCIISDGFLSVFTIDAAKKLGIPVMMYWTLAACGFMGFYHIHSLIEKGFAPLKDASYLTNGYLDTVIDWVPGMEGIRLKDFPLDWSTDLNDKVLMFTTEAPQRSHKVSHHIFHTFDELEPSIIKTLSLRYNHIYTIGPLQLLLDQIPEEKKQTGITSLHGYSLVKEEPECFQWLQSKEPNSVVYVNFGSTTVMSLEDMTEFGWGLANSNHYFLWIIRSNLVIGENAVLPPELEEHIKKRGFIASWCSQEKVLKHPSVGGFLTHCGWGSTIESLSAGVPMICWPYSWDQLTNCRYICKEWEVGLEMGTKVKRDEVKRLVQELMGEGGHKMRNKAKDWKEKARIAIAPNGSSSLNIDKMVKEITVLARN
Question: For B1, which “relative activity (product amount divided by expressed protein amount) when the activity of SgUGT74-943 was set to 1” value is on record?
Answer: The value was 0.35.

B2: UGT73E1: steviol glycosyltransferase derived from stevia, known to glycosylate mogrol (protein, UniProt Q6VAA9 1-495, looked up)
UDP-glycosyltransferase 73E1: MSPKMVAPPTNLHFVLFPLMAQGHLVPMVDIARILAQRGATVTIITTPYHANRVRPVISRAIATNLKIQLLELQLRSTEAGLPEGCESFDQLPSFEYWKNISTAIDLLQQPAEDLLRELSPPPDCIISDFLFPWTTDVARRLNIPRLVFNGPGCFYLLCIHVAITSNILGENEPVSSNTERVVLPGLPDRIEVTKLQIVGSSRPANVDEMGSWLRAVEAEKASFGIVVNTFEELEPEYVEEYKTVKDKKMWCIGPVSLCNKTGPDLAERGNKAAITEHNCLKWLDERKLGSVLYVCLGSLARISAAQAIELGLGLESINRPFIWCVRNETDELKTWFLDGFEERVRDRGLIVHGWAPQVLILSHPTIGGFLTHCGWNSTIESITAGVPMITWPFFADQFLNEAFIVEVLKIGVRIGVERACLFGEEDKVGVLVKKEDVKKAVECLMDEDEDGDQRRKRVIELAKMAKIAMAEGGSSYENVSSLIRDVTETVRAPH
Question: With B2 as the molecule, how does the “relative activity (product amount divided by expressed protein amount) when the activity of SgUGT74-943 was set to 1” value read?
Answer: The value was 0.22.
